Measurements taken from US20260242478A1 (published 2026).
Where no end group is shown, it is not given here.

Experiments:
[1] = molecular target: T1, Anti-CD28 Fab (SEQ ID NOs: 696, 697); assay: phage ELISA; biotinylated anti-CD28 Fab on neutravidin plate, clonal phage supernatant, anti-M13 HRP detection;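 further: crude supernatants of single phage clones picked after panning were screened for binding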
T1 construct: In the phage ELISA the Fab was biotinylated and captured on neutravidin coated plates
T1 sequence (VH, as listed by the source, chain 1 of 2): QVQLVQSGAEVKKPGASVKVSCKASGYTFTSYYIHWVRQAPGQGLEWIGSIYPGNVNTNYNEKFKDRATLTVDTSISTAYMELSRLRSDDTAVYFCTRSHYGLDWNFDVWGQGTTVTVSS
T1 sequence (VL, as listed by the source, chain 2 of 2): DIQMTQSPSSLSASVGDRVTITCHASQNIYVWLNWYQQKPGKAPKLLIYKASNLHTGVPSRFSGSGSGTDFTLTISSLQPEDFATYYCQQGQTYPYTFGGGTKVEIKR
Experimental: (§1) After panning, phage infected bacteria were plated out and colonies picked into 96 well blocks. Clonal phage was then amplified and separated from bacterial cells via centrifugation.
(§2) Clonal phage were harvested as crude supematants and screened via standard ELISAs. […] Prior to the addition of clonal phage, wells were incubated with blocking buffer and CD28 antigen or blocking buffer alone. Without washing or aspirating, clonal phage supematants were then added to the wells and incubated for a short time. Wells were then washed followed by detection of bound phage using a horse radish conjugated anti-M13 antibody. Clonal phage of interest were then sent for sequence analysis.

[2] = molecular target: T1, Anti-CD28 Fab (SEQ ID NOs: 696, 697); assay: phage ELISA; captured anti-CD28 Fab pre-incubated with CD28 antigen as competitor, anti-M13 HRP detection;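 further: crude clonal phage supernatants screened by ELISA, with wells pre-incubated with CD28 antigen in blocking buffer, compared against wells given blocking buffer alone as control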
Experimental: as §1, §2

[3] = molecular target: Anti-CD28 Fab (SEQ ID NOs: 696, 697); assay: phage ELISA on captured anti-CD28 Fab, wells pre-incubated with CD28 antigen as competitor;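 further: crude clonal phage supernatants added without washing, bound phage read out by HRP-coupled anti-M13 antibody, reference wells given blocking buffer only instead of CD28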
Target sequence in this assay (VH, as listed by the source, chain 1 of 2): as the sequence (VH, as listed by the source, chain 1 of 2) above
Target sequence in this assay (VL, as listed by the source, chain 2 of 2): as the sequence (VL, as listed by the source, chain 2 of 2) above

[4] = molecular target: Anti-CD28 Fab (SEQ ID NOs: 696, 697); assay: phage ELISA, clonal phage supernatant on biotinylated anti-CD28 Fab captured on neutravidin plates
Target sequence in this assay (VH, as listed by the source, chain 1 of 2): as the sequence (VH, as listed by the source, chain 1 of 2) above
Target sequence in this assay (VL, as listed by the source, chain 2 of 2): as the sequence (VL, as listed by the source, chain 2 of 2) above
Experimental: as §1, §2

[5] = molecular target: T2, Anti-CD28 Fab (SEQ ID NOs: 696, 697); assay: phage ELISA; Fab on plate pre-incubated with CD28 antigen as competitor, anti-M13 HRP detection
T2 construct: Used biotinylated and captured on neutravidin coated plates in the phage ELISA
T2 sequence (VH, as listed by the source, chain 1 of 2): as the sequence (VH, as listed by the source, chain 1 of 2) above
T2 sequence (VL, as listed by the source, chain 2 of 2): as the sequence (VL, as listed by the source, chain 2 of 2) above
Experimental: as §1, §2

[6] = molecular target: T2, Anti-CD28 Fab (SEQ ID NOs: 696, 697); assay: phage ELISA; biotinylated Fab on neutravidin plate, clonal phage supernatant, anti-M13 HRP detection
Experimental: as §1, §2

| Binder | Anti-CD28 Fab signal (phage binding ELISA) [1] | Anti-CD28 Fab signal in the presence of CD28 (phage binding ELISA) [2] | Anti-CD28 Fab signal in the presence of CD28 (phage binding ELISA) [3] | Anti-CD28 Fab signal (phage binding ELISA) [4] | other results |
| --- | --- | --- | --- | --- | --- |
| YCEGHSAVYMSKCL (Tested as clonal phage supernatant; not shown: pIII coat protein of the bacteriophage to which the peptide is fused) [Phage-1113 (Peptide-87 library clone, SEQ ID NO: 1429)] | 1.31 | 0.06 | – | – | – |
| YCDGHAPQYMAKCI (Tested as clonal phage supernatant; not shown: pIII coat protein of the bacteriophage to which the peptide is fused) [Phage-1115 (Peptide-87 library clone, SEQ ID NO: 1431)] | 1.3 | 0.06 | – | – | – |
| YCEGHLPAYMWKCL (Tested as clonal phage supernatant; not shown: pIII coat protein of the bacteriophage to which the peptide is fused) [Phage-1109 (Peptide-87 library clone, SEQ ID NO: 1425)] | 1.31 | 0.08 | – | – | – |
| YCEGHSSQWMWKCL (Peptide-87 library clone, tested as clonal phage (peptide fused to pIII of the bacteriophage)) [Phage-1124] | – | – | 0.09 | 1.27 | – |
| YCEGHSSEYMVKCL (cysteine pairing not given here; also: displayed on phage by fusion to pIII, linker and pIII sequence not given here, Peptide-87 library clone on clonal phage (crude supernatant); not shown: fused to the pIII filament protein of the bacteriophage) [Phage-1273] | – | – | – | – | Phage binding ELISA, Anti-CD28 Fab signal in the presence of CD28 [5]: 0.06; Phage binding ELISA, Anti-CD28 Fab (SEQ ID NOs: 696, 697) signal [6]: 0.77 |
| YCEGHQPAYMEKCL (Peptide-87 library clone, tested as clonal phage (peptide fused to pIII of the bacteriophage)) [Phage-1127] | – | – | 0.06 | 1.27 | – |
| YCEGHLPEYMIKCL (Tested as clonal phage supernatant; not shown: pIII coat protein of the bacteriophage to which the peptide is fused) [Phage-1108 (Peptide-87 library clone, SEQ ID NO: 1424)] | 1.32 | 0.06 | – | – | – |
| YCAGHALEYMGKCL (Tested as clonal phage supernatant; not shown: pIII coat protein of the bacteriophage to which the peptide is fused) [Phage-1107 (Peptide-87 library clone, SEQ ID NO: 1423)] | 1.32 | 0.06 | – | – | – |
| YCEGHFPLYMNKCL (Peptide-87 library clone, tested as clonal phage (peptide fused to pIII of the bacteriophage)) [Phage-1125] | – | – | 0.08 | 1.27 | – |
| YCDGHSPAYLQKCL (Peptide-87 library clone, tested as clonal phage (peptide fused to pIII of the bacteriophage)) [Phage-1123] | – | – | 0.06 | 1.28 | – |
| YCAGHIGEYMDKCL (cysteine pairing not given here; also: fused to phage pIII protein, pIII and linker sequence not given here, Peptide-87 library clone on clonal phage (crude supernatant); not shown: fused to the pIII filament protein of the bacteriophage) [Phage-1275] | – | – | – | – | Phage binding ELISA, Anti-CD28 Fab signal in the presence of CD28 [5]: 0.58; Phage binding ELISA, Anti-CD28 Fab (SEQ ID NOs: 696, 697) signal [6]: 0.75 |
| YCDGHLEVYMDKCL (Peptide-87 library clone, tested as clonal phage (peptide fused to pIII of the bacteriophage)) [Phage-1122] | – | – | 0.07 | 1.28 | – |
| YCEGHSLEYMMKCV (Tested as clonal phage supernatant; not shown: pIII coat protein of the bacteriophage to which the peptide is fused) [Phage-1114 (Peptide-87 library clone, SEQ ID NO: 1430)] | 1.3 | 0.07 | – | – | – |
| YCEGHLEIYLAKCL (Tested as clonal phage supernatant; not shown: pIII coat protein of the bacteriophage to which the peptide is fused) [Phage-1105 (Peptide-87 library clone, SEQ ID NO: 1421)] | 1.32 | 0.07 | – | – | – |
| YCQGHSVEHMAKCL (Peptide-87 library clone, tested as clonal phage (peptide fused to pIII of the bacteriophage)) [Phage-1116] | – | – | 0.06 | 1.3 | – |
| YCAGHSVQYMYKCL (cysteine pairing not given here; also: fused to phage pIII protein, pIII and linker sequence not given here, Peptide-87 library clone on clonal phage (crude supernatant); not shown: fused to the pIII filament protein of the bacteriophage) [Phage-1279] | – | – | – | – | Phage binding ELISA, Anti-CD28 Fab signal in the presence of CD28 [5]: 0.06; Phage binding ELISA, Anti-CD28 Fab (SEQ ID NOs: 696, 697) signal [6]: 0.74 |
| YCDGHAGIYVLKCL (cysteine pairing not given here; also: fused to phage pIII protein, pIII and linker sequence not given here, Peptide-87 library clone on clonal phage (crude supernatant); not shown: fused to the pIII filament protein of the bacteriophage) [Phage-1276] | – | – | – | – | Phage binding ELISA, Anti-CD28 Fab signal in the presence of CD28 [5]: 0.08; Phage binding ELISA, Anti-CD28 Fab (SEQ ID NOs: 696, 697) signal [6]: 0.75 |

| Binder | Anti-CD28 Fab signal (phage binding ELISA) [1] | Anti-CD28 Fab signal in the presence of CD28 (phage binding ELISA) [2] | Anti-CD28 Fab signal in the presence of CD28 (phage binding ELISA) [3] | Anti-CD28 Fab signal (phage binding ELISA) [4] | other results |
| --- | --- | --- | --- | --- | --- |
| YCAGHMPIYMTKCL (Peptide-87 library clone, tested as clonal phage (peptide fused to pIII of the bacteriophage)) [Phage-1117] | – | – | 0.08 | 1.3 | – |
| YCMGHLPIYMEKCL (Peptide-87 library clone, tested as clonal phage (peptide fused to pIII of the bacteriophage)) [Phage-1120] | – | – | 0.05 | 1.28 | – |
| YCEGHLPRYMLKCL (Peptide-87 library clone, tested as clonal phage (peptide fused to pIII of the bacteriophage)) [Phage-1121] | – | – | 0.3 | 1.28 | – |
| YCEGHAQQYMLKCL (cysteine pairing not given here; also: fused to phage pIII protein, pIII and linker sequence not given here, Peptide-87 library clone on clonal phage (crude supernatant); not shown: fused to the pIII filament protein of the bacteriophage) [Phage-1278] | – | – | – | – | Phage binding ELISA, Anti-CD28 Fab signal in the presence of CD28 [5]: 0.05; Phage binding ELISA, Anti-CD28 Fab (SEQ ID NOs: 696, 697) signal [6]: 0.74 |
| YCDGHSAEYIAKCL (Tested as clonal phage supernatant; not shown: pIII coat protein of the bacteriophage to which the peptide is fused) [Phage-1112 (Peptide-87 library clone, SEQ ID NO: 1428)] | 1.31 | 0.05 | – | – | – |
| YCEGHLVQYMQKCL (Peptide-87 library clone, tested as clonal phage (peptide fused to pIII of the bacteriophage)) [Phage-1119] | – | – | 0.06 | 1.28 | – |
| YCDGHLPVYMTKCL (Peptide-87 library clone, tested as clonal phage (peptide fused to pIII of the bacteriophage)) [Phage-1129] | – | – | 0.07 | 1.27 | – |
| YCDGHAEEYRMKCL (Peptide-87 library clone, tested as clonal phage (peptide fused to pIII of the bacteriophage)) [Phage-1128] | – | – | 0.08 | 1.27 | – |
| YCDGHTAEFIGKCL (Tested as clonal phage supernatant; not shown: pIII coat protein of the bacteriophage to which the peptide is fused) [Phage-1106 (Peptide-87 library clone, SEQ ID NO: 1422)] | 1.32 | 0.06 | – | – | – |
| YCEGHSTEYMAKCL (Peptide-87 library clone, tested as clonal phage (peptide fused to pIII of the bacteriophage)) [Phage-1126] | – | – | 0.06 | 1.27 | – |
| YCDGHIPEYMTKCL (Tested as clonal phage supernatant; not shown: pIII coat protein of the bacteriophage to which the peptide is fused) [Phage-1111 (Peptide-87 library clone, SEQ ID NO: 1427)] | 1.31 | 0.06 | – | – | – |
| YCAGHMPQYMSKCL (cysteine pairing not given here; also: fused to phage pIII protein, pIII and linker sequence not given here, Peptide-87 library clone on clonal phage (crude supernatant); not shown: fused to the pIII filament protein of the bacteriophage) [Phage-1281] | – | – | – | – | Phage binding ELISA, Anti-CD28 Fab signal in the presence of CD28 [5]: 0.05; Phage binding ELISA, Anti-CD28 Fab (SEQ ID NOs: 696, 697) signal [6]: 0.72 |
| YCEGHFGMYMSKCL (cysteine pairing not given here; also: fused to phage pIII protein, pIII and linker sequence not given here, Peptide-87 library clone on clonal phage (crude supernatant); not shown: fused to the pIII filament protein of the bacteriophage) [Phage-1280] | – | – | – | – | Phage binding ELISA, Anti-CD28 Fab signal in the presence of CD28 [5]: 0.07; Phage binding ELISA, Anti-CD28 Fab (SEQ ID NOs: 696, 697) signal [6]: 0.73 |
| YCDGHTGVYKWKCI (cysteine pairing not given here; also: fused to phage pIII protein, pIII and linker sequence not given here, Peptide-87 library clone on clonal phage (crude supernatant); not shown: fused to the pIII filament protein of the bacteriophage) [Phage-1274] | – | – | – | – | Phage binding ELISA, Anti-CD28 Fab signal in the presence of CD28 [5]: 0.06; Phage binding ELISA, Anti-CD28 Fab (SEQ ID NOs: 696, 697) signal [6]: 0.76 |
| YCDGHNPVYLAKCL (cysteine pairing not given here; also: fused to phage pIII protein, pIII and linker sequence not given here, Peptide-87 library clone on clonal phage (crude supernatant); not shown: fused to the pIII filament protein of the bacteriophage) [Phage-1277] | – | – | – | – | Phage binding ELISA, Anti-CD28 Fab signal in the presence of CD28 [5]: 0.08; Phage binding ELISA, Anti-CD28 Fab (SEQ ID NOs: 696, 697) signal [6]: 0.74 |
| YCDGHRAEYMLKCL (Peptide-87 library clone, tested as clonal phage (peptide fused to pIII of the bacteriophage)) [Phage-1118] | – | – | 0.08 | 1.29 | – |
